PMC7387793, “Structural Basis and Evolution of Glycan Receptor Specificities within the Polyomavirus Family” (mBio, 2020)

Tests used:
[1] = target: T1, GhPyV VP1 (Goose hemorrhagic polyomavirus, UniProt A0A860PKB9); assay: X-ray crystal structure (soak); assay type: binding; settings: crystal soaked with 20 mM 2-O-Me-Neu5Ac, 17 h, MES/imidazole pH 6.5, 1.95 Å; BC2 loop site
T1 construct: truncated VP1, residues 21-286, E. coli BL21(DE3), His tag cut by thrombin (GSHM left), pentamer; site includes counterclockwise monomer

[2] = target: Chimpanzee polyomavirus (ChPyV) major capsid protein VP1, N- and C-terminally truncated, C154S (chimpanzee polyomavirus (ChPyV)); assay: crystal structure; X-ray structures of truncated, assembly-incompetent VP1 pentamers, native and soaked with sialylated glycans; solved by molecular replacement with 5-fold NCS restraints
[3] = target: New Jersey polyomavirus (NJPyV) major capsid protein VP1, amino acids 36 to 323 (New Jersey polyomavirus-2013 (NJPyV)); assay: as above
[4] = target: Goose hemorrhagic polyomavirus (GhPyV) major capsid protein VP1, amino acids 21 to 286 (goose hemorrhagic polyomavirus (GhPyV)); assay: as above
[5] = target: Human polyomavirus 12 (HPyV12) major capsid protein VP1, amino acids 27 to 299 (human polyomavirus 12 (HPyV12)); assay: as above
[6] = target: Sheep polyomavirus (ShPyV) major capsid protein VP1, amino acids 20 to 285, C95S (sheep polyomavirus (ShPyV)); assay: as above
[7] = target: Finch polyomavirus (FiPyV) major capsid protein VP1, amino acids 22 to 291, C78S C92S (finch polyomavirus (FiPyV)); assay: as above

CO[C@]1(C(=O)O)C[C@H](O)[C@@H](NC(C)=O)[C@H]([C@H](O)[C@H](O)CO)O1 [2-O-Me-Neu5Ac]
X-ray crystal structure (soak) [1]: GhPyV VP1 with 2-O-Me-Neu5Ac

Chimpanzee polyomavirus (ChPyV) major capsid protein VP1, N- and C-terminally truncated, C154S (domain or fragment)
stoichiometry N [2]: 5

New Jersey polyomavirus (NJPyV) major capsid protein VP1, amino acids 36 to 323 (domain or fragment)
stoichiometry N [3]: 5

Goose hemorrhagic polyomavirus (GhPyV) major capsid protein VP1, amino acids 21 to 286 (domain or fragment)
stoichiometry N [4]: 5

Human polyomavirus 12 (HPyV12) major capsid protein VP1, amino acids 27 to 299 (domain or fragment)
stoichiometry N [5]: 5

Sheep polyomavirus (ShPyV) major capsid protein VP1, amino acids 20 to 285, C95S (domain or fragment)
stoichiometry N [6]: 5

Finch polyomavirus (FiPyV) major capsid protein VP1, amino acids 22 to 291, C78S C92S (domain or fragment)
stoichiometry N [7]: 5
